Experimental findings from patent US20250213707A1, “COMPOUND FOR INCREASING EFFICACY OF ONCOLYTIC VIRUSES” (ABLEVIA BIOTECH GMBH, priority 2022, published 2025) are described below.

This test addresses mAb Mac2-158. Briefly: circular peptide array.
CSGRVEVKVQEEW (modifications not checked) came in with a rank of binding signal of 7 rank.

VQEEWGTVCNNGW (modifications not checked) returned a rank of binding signal of 18 rank.

NESALWDCKHDGW (modifications not checked) yielded a rank of binding signal of 13 rank.

As for VSCRGNESALWDC (modifications not checked), the rank of binding signal amounted to 5 rank.

In the case of WGTVCNNGWSMEA (modifications not checked), the rank of binding signal was 12 rank.

In the case of DHVSCRGNESALW (modifications not checked), the rank of binding signal is 8 rank.

In the case of ESALWDCKHDGWG (modifications not checked), the rank of binding signal is 17 rank.

With EEWGTVCNNGWSM (modifications not checked), the rank of binding signal was 14 rank.

ESALWDC (modifications not checked) had a rank of binding signal of 1 rank.

For the molecule RGNESALWDC (modifications not checked), the rank of binding signal came out at 2 rank.

EWGTVCNNGW (modifications not checked) came in with a rank of binding signal of 19 rank.

The molecule SCRGNESALW (modifications not checked) came in with a rank of binding signal of 3 rank.

For WGTVCNNGWS (modifications not checked), the rank of binding signal amounted to 20 rank.

The molecule EWGTVCNNGWSME (modifications not checked) returned a rank of binding signal of 4 rank.

The molecule ALWDCKHDGW (modifications not checked) returned a rank of binding signal of 6 rank.

QEEWGTVCNNGWS (modifications not checked) registered a rank of binding signal of 9 rank.

In the case of CRGNESALWD (modifications not checked), the rank of binding signal worked out at 11 rank.
